The RNAGym collection of RNA variant scans (doi:10.1093/molbev/msab373)

B1: Azoarcus group I ribozyme (parent)
chain: GUGCCUUGCGCCGGGAAACCACGCAAGGGAUGGUGUCAAAUUCGGCGAAACCUAAGCGCCCGCCCGGGCGUAUGGCAACGCCGAGCCAAGCUUCGGCGCCUGCGCCGAUGAAGGUGUAGAGACUAGACGGCACCCACCUAAGGCAAACGCUAUGGUGAAGGCAUAGUCCAGGGAGUGGCGAAAGUCACACAAACCGG

Variants of: B1
Assay: reverse-splicing fitness (ratio to wild type); higher = more active; in vitro selection; Mg2+ level not given
Method in brief: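 An in vitro group I ribozyme library with randomized positions was T7-transcribed and gel-purified. In triplicate, 10 pmol RNA in EPPS pH 7.5 was reacted with 50 pmoles of a 30-nt RNA substrate for 1 h at 37 °C across several added MgCl2 levels (1–48 mM), then stopped with EDTA. Products were reverse transcribed from a substrate-complementary primer, PCR-amplified and sequenced (HiSeq 4000). Fitness is a variant's read proportion after selection over that before, normalised to wild type.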

Variant	reverse-splicing fitness
GUGCCUUGCGCCGGGAAACCACGCAAGGGAUGGUGUCAAAUUCGGCGAAACCUAAGCGCCCGCCCGGGCGUAUGGCAACGCGGAGCCAAGCUUCGGCGCCUGCGCCGAUGGAGGUGUAGCGACUAGACGGCACCCACCUAAGGCUAACGUUAUGGUGAAGGCAUAGUCUAGGGAGGGGCGAAAGUCACACAAACCGG [C82G A111G A120C A145U C150U C169U U176G]	0.00591
GUGCCUUGCGCCGGGAAACCACGCAAGGGAUGGUGUCAAAUUCGGCGAAACCUAAGCGCCCGCCCGGGCGUAUGGCAACGCGGAGCCAAGCUUCGGCGCCUGCGCCGAUGGAGGUGUAGCGACUAGACGGCACCCACCUAAGGCUAACGUUAUGGUGAAGGCAUAGUCUAGGGAGCGGCGAAAGUCACACAAACCGG [C82G A111G A120C A145U C150U C169U U176C]	0.0143
GUGCCUUGCGCCGGGAAACCACGCAAGGGAUGGUGUCAAAUUCGGCGAAACCUAAGCGCCCGCCCGGGCGUAUGGCAACGCGGAGCCAAGCUUCGGCGCCUGCGCCGAUGGAGGUGUAGCGACUAGACGGCACCCACCUAAGGCUAACGUUAUGGUGAAGGCAUAGUCUAGGGAGAGGCGAAAGUCACACAAACCGG [C82G A111G A120C A145U C150U C169U U176A]	0.0143
GUGCCUUGCGCCGGGAAACCACGCAAGGGAUGGUGUCAAAUUCGGCGAAACCUAAGCGCCCGCCCGGGCGUAUGGCAACGCGGAGCCAAGCUUCGGCGCCUGCGCCGAUGGAGGUGUAGCGACUAGACGGCACCCACCUAAGGCUAACGCUAUGGUGAAGGCAUAGUCAAGGGAGUGGCGAAAGUCACACAAACCGG [C82G A111G A120C A145U C169A]	0.00712
GUGCCUUGCGCCGGGAAACCACGCAAGGGAUGGUGUCAAAUUCGGCGAAACCUAAGCGCCCGCCCGGGCGUAUGGCAACGCGGAGCCAAGCUUCGGCGCCUGCGCCGAUGGAGGUGUAGCGACUAGACGGCACCCACCUAAGGCUAACGCUAUGGUGAAGGCAUAGUCGAGGGAGUGGCGAAAGUCACACAAACCGG [C82G A111G A120C A145U C169G]	0.00799
GUGCCUUGCGCCGGGAAACCACGCAAGGGAUGGUGUCAAAUUCGGCGAAACCUAAGCGCCCGCCCGGGCGUAUGGCAACGCGGAGCCAAGCUUCGGCGCCUGCGCCGAUGGAGGUGUAGCGACUAGACGGCACCCACCUAAGGCUAACGUUAUGGUGAAGGCAUAGUCCAGGGAGCGGCGAAAGUCACACAAACCGG [C82G A111G A120C A145U C150U U176C]	0.0348
GUGCCUUGCGCCGGGAAACCACGCAAGGGAUGGUGUCAAAUUCGGCGAAACCUAAGCGCCCGCCCGGGCGUAUGGCAACGCGGAGCCAAGCUUCGGCGCCUGCGCCGAUGGAGGUGUAGCGACUAGACGGCACCCACCUAAGGCUAACGUUAUGGUGAAGGCAUAGUCCAGGGAGAGGCGAAAGUCACACAAACCGG [C82G A111G A120C A145U C150U U176A]	0.0202
GUGCCUUGCGCCGGGAAACCACGCAAGGGAUGGUGUCAAAUUCGGCGAAACCUAAGCGCCCGCCCGGGCGUAUGGCAACGCGGAGCCAAGCUUCGGCGCCUGCGCCGAUGGAGGUGUAGCGACUAGACGGCACCCACCUAAGGCUAACGUUAUGGUGAAGGCAUAGUCCAGGGAGGGGCGAAAGUCACACAAACCGG [C82G A111G A120C A145U C150U U176G]	0.00869
GUGCCUUGCGCCGGGAAACCACGCAAGGGAUGGUGUCAAAUUCGGCGAAACCUAAGCGCCCGCCCGGGCGUAUGGCAACGCGGAGCCAAGCUUCGGCGCCUGCGCCGAUGGAGGUGUAGCGACUAGACGGCACCCACCUAAGGCUAACGCUAUGGUGAAGGCAUAGUCAAGGGAGCGGCGAAAGUCACACAAACCGG [C82G A111G A120C A145U C169A U176C]	0.0149
GUGCCUUGCGCCGGGAAACCACGCAAGGGAUGGUGUCAAAUUCGGCGAAACCUAAGCGCCCGCCCGGGCGUAUGGCAACGCGGAGCCAAGCUUCGGCGCCUGCGCCGAUGGAGGUGUAGCGACUAGACGGCACCCACCUAAGGCUAACGCUAUGGUGAAGGCAUAGUCAAGGGAGGGGCGAAAGUCACACAAACCGG [C82G A111G A120C A145U C169A U176G]	0.00508
GUGCCUUGCGCCGGGAAACCACGCAAGGGAUGGUGUCAAAUUCGGCGAAACCUAAGCGCCCGCCCGGGCGUAUGGCAACGCGGAGCCAAGCUUCGGCGCCUGCGCCGAUGGAGGUGUAGCGACUAGACGGCACCCACCUAAGGCUAACGCUAUGGUGAAGGCAUAGUCAAGGGAGAGGCGAAAGUCACACAAACCGG [C82G A111G A120C A145U C169A U176A]	0.0147
GUGCCUUGCGCCGGGAAACCACGCAAGGGAUGGUGUCAAAUUCGGCGAAACCUAAGCGCCCGCCCGGGCGUAUGGCAACGCGGAGCCAAGCUUCGGCGCCUGCGCCGAUGGAGGUGUAGCGACUAGACGGCACCCACCUAAGGCUAACGUUAUGGUGAAGGCAUAGUCUAGGGAGUGGCGAAAGUCACACAAACCGG [C82G A111G A120C A145U C150U C169U]	0.0124
GUGCCUUGCGCCGGGAAACCACGCAAGGGAUGGUGUCAAAUUCGGCGAAACCUAAGCGCCCGCCCGGGCGUAUGGCAACGCGGAGCCAAGCUUCGGCGCCUGCGCCGAUGGAGGUGUAGCGACUAGACGGCACCCACCUAAGGCUAACGCUAUGGUGAAGGCAUAGUCGAGGGAGCGGCGAAAGUCACACAAACCGG [C82G A111G A120C A145U C169G U176C]	0.0163
GUGCCUUGCGCCGGGAAACCACGCAAGGGAUGGUGUCAAAUUCGGCGAAACCUAAGCGCCCGCCCGGGCGUAUGGCAACGCGGAGCCAAGCUUCGGCGCCUGCGCCGAUGGAGGUGUAGCGACUAGACGGCACCCACCUAAGGCUAACGCUAUGGUGAAGGCAUAGUCGAGGGAGAGGCGAAAGUCACACAAACCGG [C82G A111G A120C A145U C169G U176A]	0.0157
GUGCCUUGCGCCGGGAAACCACGCAAGGGAUGGUGUCAAAUUCGGCGAAACCUAAGCGCCCGCCCGGGCGUAUGGCAACGCGGAGCCAAGCUUCGGCGCCUGCGCCGAUGGAGGUGUAGCGACUAGACGGCACCCACCUAAGGCUAACGCUAUGGUGAAGGCAUAGUCGAGGGAGGGGCGAAAGUCACACAAACCGG [C82G A111G A120C A145U C169G U176G]	0.00477
